Laboratory results: the supplement of paper PMC5949888

Each sequence was assayed on Saccharomyces cerevisiae PS128 hsf1 delta, HSF1(1-493) fusion (assay: growth estimate (transactivation domain function in HSF1 fusion, heat-shock survival) (a.u. (slope of normalised read count over time)); higher = stronger growth at 37°C, i.e. more transactivation activity). Settings: library: design library.
In short: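 Transactivation-domain oligos were designed and fused to a truncated yeast HSF1 (amino acids 1–493), then expressed in a yeast strain lacking hsf1. Replica plating onto –trp 5-FOA plates was followed by incubation at 30°C or 37°C for 0, 2, 4, 6 and 8 days. Inserts were amplified by PCR and sequenced on an Illumina MiSeq as six barcoded replicates from a single experiment. The growth estimate is the slope of a robust linear fit over time of read counts normalised to sample totals and to starting count.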

Row | Sequence | growth estimate
1 | AADDIWEELLSEDL | 2.1
2 | ADDDEFSLWDSML | 1.96
3 | ADLYSILWSDVY | -0.203
4 | AELSWIIELLEKDG | -0.248
5 | AFDLDMLGDFDLDMLG | 1.88
6 | AFDYDFLFGNDFA | 10.5
7 | AFNDLLDLDFILSN | 0.948
8 | AFPDTQDDFLKWWRSEEAQ | -0.0486
9 | ALDESWDYIFETTE | 0.813
10 | ALSSHGFSVDTSALLDLFSP | 0.065
11 | AMDDVYNYLFDD | 2.28
12 | AQNGEIAQLWDFN | -0.205
13 | DADESWDYIFETTE | -0.164
14 | DADLDMLGDFDLDMLG | 0.604
15 | DALSWIIELLEKDG | < -0.25
16 | DEASWIIELLEKDG | -0.123
17 | DELAWIIELLEKDG | 0.883
18 | DELGWIIELLEKDG | -0.244
19 | DELKWIIELLEKDG | -0.0445
20 | DELPWIIELLEKDG | -0.193
21 | DELRWIIELLEKDG | 0.0232
22 | DELSAIIELLEKDG | < -0.25
23 | DELSGIIELLEKDG | -0.238
24 | DELSKIIELLEKDG | < -0.25
25 | DELSPIIELLEKDG | -0.237
26 | DELSRIIELLEKDG | < -0.25

Row | Sequence | growth estimate
27 | DELSWAIELLEKDG | < -0.25
28 | DELSWGIELLEKDG | < -0.25
29 | DELSWIAELLEKDG | 0.851
30 | DELSWIGELLEKDG | -0.125
31 | DELSWIIALLEKDG | -0.104
32 | DELSWIIEALEKDG | 0.0037
33 | DELSWIIEGLEKDG | < -0.25
34 | DELSWIIEKLEKDG | < -0.25
35 | DELSWIIELLAKDG | -0.221
36 | DELSWIIELLEADG | 1.64
37 | DELSWIIELLEGDG | 2.77
38 | DELSWIIELLEKAG | < -0.25
39 | DELSWIIELLEKDA | 2.02
40 | DELSWIIELLEKDG | 1.7
41 | DELSWIIELLEKDK | 0.564
42 | DELSWIIELLEKDP | 3.41
43 | DELSWIIELLEKDR | 0.276
44 | DELSWIIELLEKGG | 0.213
45 | DELSWIIELLEKKG | < -0.25
46 | DELSWIIELLEKPG | 0.0373
47 | DELSWIIELLEKRG | < -0.25
48 | DELSWIIELLEPDG | 7.58
49 | DELSWIIELLERDG | 1.05
50 | DELSWIIELLGKDG | -0.173
51 | DELSWIIELLKKDG | -0.239
52 | DELSWIIELLPKDG | -0.225

Row | Sequence | growth estimate
53 | DELSWIIELLRKDG | < -0.25
54 | DELSWIIELPEKDG | -0.237
55 | DELSWIIELREKDG | -0.239
56 | DELSWIIERLEKDG | < -0.25
57 | DELSWIIGLLEKDG | -0.0196
58 | DELSWIIKLLEKDG | -0.233
59 | DELSWIIRLLEKDG | < -0.25
60 | DELSWIKELLEKDG | 0.278
61 | DELSWIPELLEKDG | -0.091
62 | DELSWIRELLEKDG | 1.03
63 | DELSWKIELLEKDG | < -0.25
64 | DELSWPIELLEKDG | 0.046
65 | DELSWRIELLEKDG | -0.216
66 | DEPSWIIELLEKDG | -0.161
67 | DERSWIIELLEKDG | < -0.25
68 | DFALDMLGDFDLDMLG | 3.21
69 | DFDADMLGDFDLDMLG | 6.93
70 | DFDGDMLGDFDLDMLG | 1.92
71 | DFDKDMLGDFDLDMLG | 0.964
72 | DFDLAMLGDFDLDMLG | 9.96
73 | DFDLDALGDFDLDMLG | 5.01
74 | DFDLDGLGDFDLDMLG | 2.75
75 | DFDLDKLGDFDLDMLG | 1.4
76 | DFDLDMAGDFDLDMLG | 11.3
77 | DFDLDMGGDFDLDMLG | 8.13
78 | DFDLDMKGDFDLDMLG | 0.067

Row | Sequence | growth estimate
79 | DFDLDMLADFDLDMLG | 0.343
80 | DFDLDMLGAFDLDMLG | 5.97
81 | DFDLDMLGDADLDMLG | 5.13
82 | DFDLDMLGDFDADMLG | 21.1
83 | DFDLDMLGDFDGDMLG | 4.69
84 | DFDLDMLGDFDKDMLG | 0.54
85 | DFDLDMLGDFDLAMLG | -0.0527
86 | DFDLDMLGDFDLDALG | 0.195
87 | DFDLDMLGDFDLDGLG | 2.79
88 | DFDLDMLGDFDLDKLG | -0.158
89 | DFDLDMLGDFDLDMAG | 30.2
90 | DFDLDMLGDFDLDMGG | 16.5
91 | DFDLDMLGDFDLDMKG | 3.28
92 | DFDLDMLGDFDLDMLA | 1.83
93 | DFDLDMLGDFDLDMLG | 7.72
94 | DFDLDMLGDFDLDMLK | 1.65
95 | DFDLDMLGDFDLDMLP | 22.2
96 | DFDLDMLGDFDLDMLR | 6.97
97 | DFDLDMLGDFDLDMPG | 17.2
98 | DFDLDMLGDFDLDMRG | 6.95
99 | DFDLDMLGDFDLDPLG | 9.65
100 | DFDLDMLGDFDLDRLG | 0.414
101 | DFDLDMLGDFDLGMLG | 0.517
102 | DFDLDMLGDFDLKMLG | -0.116
103 | DFDLDMLGDFDLPMLG | 1.24
104 | DFDLDMLGDFDLRMLG | 0.112

Row | Sequence | growth estimate
105 | DFDLDMLGDFDPDMLG | 10.6
106 | DFDLDMLGDFDRDMLG | 0.584
107 | DFDLDMLGDFKLDMLG | 0.503
108 | DFDLDMLGDFPLDMLG | 1.65
109 | DFDLDMLGDFRLDMLG | 0.535
110 | DFDLDMLGDGDLDMLG | -0.147
111 | DFDLDMLGDKDLDMLG | -0.188
112 | DFDLDMLGDPDLDMLG | 10.1
113 | DFDLDMLGGFDLDMLG | 2.09
114 | DFDLDMLGKFDLDMLG | 1.77
115 | DFDLDMLGRFDLDMLG | 1.8
116 | DFDLDMLKDFDLDMLG | 2.58
117 | DFDLDMLPDFDLDMLG | 0.485
118 | DFDLDMLRDFDLDMLG | 11.1
119 | DFDLDMPGDFDLDMLG | 6.81
120 | DFDLDMRGDFDLDMLG | 1.6
121 | DFDLDPLGDFDLDMLG | 2.12
122 | DFDLDRLGDFDLDMLG | 4.07
123 | DFDLGMLGDFDLDMLG | 12.4
124 | DFDLKMLGDFDLDMLG | 3.04
125 | DFDLPMLGDFDLDMLG | 5.28
126 | DFDLRMLGDFDLDMLG | 6.25
127 | DFDPDMLGDFDLDMLG | 7.23
128 | DFDRDMLGDFDLDMLG | 1.31
129 | DFGLDMLGDFDLDMLG | 2.44
130 | DFKLDMLGDFDLDMLG | 5.13

Row | Sequence | growth estimate
131 | DFPLDMLGDFDLDMLG | 3.12
132 | DFRLDMLGDFDLDMLG | 10.1
133 | DGDESWDYIFETTE | -0.219
134 | DGDLDMLGDFDLDMLG | 0.418
135 | DGLSWIIELLEKDG | -0.173
136 | DKDESWDYIFETTE | -0.235
137 | DKDLDMLGDFDLDMLG | -0.127
138 | DKLSWIIELLEKDG | < -0.25
139 | DLAESWDYIFETTE | 0.371
140 | DLDASWDYIFETTE | 0.507
141 | DLDEAWDYIFETTE | 1.45
142 | DLDEGWDYIFETTE | 0.787
143 | DLDEKWDYIFETTE | < -0.25
144 | DLDEPWDYIFETTE | 1.58
145 | DLDESADYIFETTE | -0.127
146 | DLDESGDYIFETTE | -0.129
147 | DLDESRDYIFETTE | -0.153
148 | DLDESWAYIFETTE | 0.283
149 | DLDESWDAIFETTE | < -0.25
150 | DLDESWDGIFETTE | 0.5
151 | DLDESWDKIFETTE | -0.06
152 | DLDESWDRIFETTE | < -0.25
